These results are taken from PMC5021511 (Methods in cell biology, 2016).

The data set concerns the molecule itself. Put plainly: FRET or BRET.

B1: Cdc11(E294C)-capped and otherwise Cys-less septin heterooctamer, labeled with AF555-maleimide (donor) or AF647-maleimide (acceptor) (complex, S. cerevisiae)
chain 1: MSGIIDASSALRKRKHLKRGITFTVMIVGQSGSGRSTFINTLFGQQVVDTSTTILLPTDTSTEIDLQLREETVELEDDEGVKIQLNIIDTPGFGDSLDNSPSFEIISDYIRHQYDEILLEESRVRRNPRFKDGRVHAALYLINPTGHGLKEIDVEFIRQLGSLVNIIPVISKSDSLTRDELKLNKKLIMEDIDRWNLPIYNFPFDEDEISDEDYETNMYLRTLLPFAIIGSNEVYEMGGDVGTIRGRKYPWGILDVEDSSISDFVILRNALLISHLHDLKNYTHEILYERYRTCALSGESVAAESIRPNLTKLNGSSSSSTTTRRNTNPFKQSNNINNDVLNPASDMHGQSTGENNETYMTREEQIRLEEERLKAFEERVQQELLLKRQELLQREKELREIEARLEKEAKIKQEE
chain 2: MSAATATAAPVPPPVGISNLPNQRYKIVNEEGGTFTVMLAGESGLGKTTFINTLFQTVLKRADGQQHRQEPIRKTVEIDITRALLEEKHFELRVNVIDTPGFGDNVNNNKAWQPLVDFIDDQHDSYMRQEQQPYRTKKFDLRVHAVLYFIRPTGHGLKPIDIETMKRLSTRANLIPVIAKADTLTAQELQQFKSRIRQVIEAQEIRIFTPPLDADSKEDAKSGSNPDSAAVEHARQLIEAMPFAIVGSEKKFDNGQGTQVVARKYPWGLVEIENDSHSDFRKLRALLLRTYLLDLISTTQEMHYETYRRLRLEGHENTGEGNEDFTLPAIAPARKLSHNPRYKEEENALKKYFTDQVKAEEQRFRQWEQNIVNERIRLNGDLEEIQGKVKKLEEQVKSLQVKKSHLK
chain 3: MSLKEEQVSIKQDPEQEERQHDQFNDVQIKQESQDHDGVDSQYTNGTQNDDSERFEAAESDVKVEPGLGMGITSSQSEKGQVLPDQPEIKFIRRQINGYVGFANLPKQWHRRSIKNGFSFNLLVVGPDGIGKTTLMKTLFNNDDIEANLVKDYEEELANDQEEEEGQGEGHENQSQEQRHKVKIKSYESVIEENGVKLNLNVIDTEGFGDFLNNDQKSWDPIIKEIDSRFDQYLDAENKINRHSINDKRIHAVLYFIEPTGHYLKPLDLKFMQSVYEKVNLIPVIAKSDILTDEEILSFKKTIMNQLIQSNIELFKPPIYSNDDAENSHLSERLFSSLPYAVIGSNDIVENYSGNQVRGRSYPWGVIEVDNDNHSDFNLLKNLLIKQFMEELKERTSKILYENYRSSKLAKLGIKQDNSVFKEFDPISKQQEEKTLHEAKLAKLEIEMKTVFQQKVSEKEKKLQKSETELFARHKEMKEKLTKQLKALEDKKKQLELSINSASPNVNHSPVPTKKKGFLR
chain 4: MDPLSSVQPASYVGFDTITNQIEHRLLKKGFQFNIMVVGQSGLGKSTLINTLFASHLIDSATGDDISALPVTKTTEMKISTHTLVEDRVRLNINVIDTPGFGDFIDNSKAWEPIVKYIKEQHSQYLRKELTAQRERFITDTRVHAILYFLQPNGKELSRLDVEALKRLTEIANVIPVIGKSDTLTLDERTEFRELIQNEFEKYNFKIYPYDSEELTDEELELNRSVRSIIPFAVVGSENEIEINGETFRGRKTRWSAINVEDINQSDFVYLREFLIRTHLQDLIETTSYIHYEGFRARQLIALKENANSRSSAHMSSNAIQR
modifications: Alexa Fluor 555 maleimide (donor batch) or Alexa Fluor 647 maleimide (acceptor batch) on C294
In turn, B1 gave a dissociation constant Kd of 24.3 ± 13.7 nM.
